# Reference: the supplement of paper PMC9112550, “Optimization of the antimicrobial peptide Bac7 by deep mutational scanning” (BMC Biology, 2022)
# System: Escherichia coli TOP10
# Experiment: shrunken log2 fold change of peptide-encoding DNA abundance (4.5 h post-induction vs induction); higher = less antimicrobial activity (less host growth inhibition)
# Conditions: time post-induction: 4.5 h; library: site-saturation at positions 5, 18, 19, 20
# 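Also: peptides expressed intracellularly from a pBAD plasmid library in pooled LB shake-flask culture, induced with 0.3% L-arabinose, DNA abundance read by NGS, three biological replicates, DESeq2 with apeglm shrinkage.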
row,Sequence,shrunken log2 fold change
1,RRIRWRPPRLPRPRPRPSGWPRP,0.422
2,RRIRLRPPRLPRPRPRPLDEPRP,-0.0999
3,RRIRWRPPRLPRPRPRPTFPPRP,0.197
4,RRIRCRPPRLPRPRPRPWCVPRP,-0.0995
5,RRIRKRPPRLPRPRPRPLEYPRP,-0.123
6,RRIRKRPPRLPRPRPRPPQIPRP,0.661
7,RRIRMRPPRLPRPRPRPCIHPRP,0.00462
8,RRIRERPPRLPRPRPRPHSDPRP,-0.0192
9,RRIRTRPPRLPRPRPRPRIGPRP,0.116
10,RRIRFRPPRLPRPRPRPPCWPRP,0.478
11,RRIRVRPPRLPRPRPRPFTSPRP,-0.0104
12,RRIRKRPPRLPRPRPRPPWEPRP,1.23
13,RRIRDRPPRLPRPRPRPEQIPRP,-0.0105
14,RRIRYRPPRLPRPRPRPMTQPRP,-0.0104
15,RRIRERPPRLPRPRPRPVWRPRP,0.202
16,RRIRCRPPRLPRPRPRPVLHPRP,-0.199
17,RRIRWRPPRLPRPRPRPHHDPRP,-0.708
18,RRIRERPPRLPRPRPRPFNDPRP,-0.0864
19,RRIRFRPPRLPRPRPRPAPLPRP,0.516
20,RRIRSRPPRLPRPRPRPKEHPRP,0.0336
21,RRIRMRPPRLPRPRPRPSPIPRP,-0.106
22,RRIRLRPPRLPRPRPRPWKQPRP,-0.0134
23,RRIRVRPPRLPRPRPRPQPQPRP,0.302
24,RRIRNRPPRLPRPRPRPDSDPRP,-0.00992
25,RRIRGRPPRLPRPRPRPNRWPRP,0.617

row,Sequence,shrunken log2 fold change
1,RRIRFRPPRLPRPRPRPSHCPRP,-0.28
2,RRIRTRPPRLPRPRPRPEFGPRP,0.0617
3,RRIRTRPPRLPRPRPRPWHVPRP,0.0162
4,RRIRHRPPRLPRPRPRPDTDPRP,-0.0683
5,RRIRYRPPRLPRPRPRPMWMPRP,-0.00149
6,RRIRGRPPRLPRPRPRPYYIPRP,-0.233
7,RRIRFRPPRLPRPRPRPMCEPRP,-0.236
8,RRIRLRPPRLPRPRPRPVQFPRP,-0.38
9,RRIRCRPPRLPRPRPRPQDVPRP,-0.176
10,RRIRDRPPRLPRPRPRPLRVPRP,0.679
11,RRIRPRPPRLPRPRPRPPHEPRP,-0.0736
12,RRIRPRPPRLPRPRPRPEMYPRP,-0.269
13,RRIRARPPRLPRPRPRPAIRPRP,0.422
14,RRIRRRPPRLPRPRPRPLAKPRP,0.571
15,RRIRKRPPRLPRPRPRPMCHPRP,-0.0182
16,RRIRARPPRLPRPRPRPIQLPRP,-0.0651
17,RRIRYRPPRLPRPRPRPPSAPRP,0.388
18,RRIRFRPPRLPRPRPRPQDCPRP,0.00177
19,RRIRFRPPRLPRPRPRPNQHPRP,-0.275
20,RRIRWRPPRLPRPRPRPCRSPRP,0.0427
21,RRIRRRPPRLPRPRPRPGRTPRP,0.315
22,RRIRKRPPRLPRPRPRPCPAPRP,0.17
23,RRIRWRPPRLPRPRPRPNIRPRP,-0.135
24,RRIRERPPRLPRPRPRPCGRPRP,-0.0316
25,RRIRFRPPRLPRPRPRPRYFPRP,0.0373

row,Sequence,shrunken log2 fold change
1,RRIRCRPPRLPRPRPRPWSYPRP,-0.441
2,RRIRLRPPRLPRPRPRPCFCPRP,-0.279
3,RRIRDRPPRLPRPRPRPKNEPRP,-0.00834
4,RRIRPRPPRLPRPRPRPPRKPRP,0.79
5,RRIRDRPPRLPRPRPRPSWLPRP,0.339
6,RRIRRRPPRLPRPRPRPTCYPRP,-0.242
7,RRIRTRPPRLPRPRPRPYASPRP,-0.255
8,RRIRTRPPRLPRPRPRPTWDPRP,0.478
9,RRIRPRPPRLPRPRPRPVGYPRP,0.394
10,RRIRKRPPRLPRPRPRPAVFPRP,0.271
11,RRIRARPPRLPRPRPRPSAYPRP,0.0396
12,RRIRHRPPRLPRPRPRPVLHPRP,-0.501
13,RRIRVRPPRLPRPRPRPDLSPRP,-0.011
14,RRIRGRPPRLPRPRPRPNCDPRP,0.382
15,RRIRKRPPRLPRPRPRPVIAPRP,0.437
16,RRIRYRPPRLPRPRPRPHKEPRP,0.103
17,RRIRCRPPRLPRPRPRPWILPRP,-0.357
18,RRIRPRPPRLPRPRPRPMYFPRP,-0.0431
19,RRIRERPPRLPRPRPRPKPSPRP,0.229
20,RRIRVRPPRLPRPRPRPWSVPRP,-0.0304
21,RRIRLRPPRLPRPRPRPSPLPRP,-0.192
22,RRIRRRPPRLPRPRPRPCSNPRP,-0.166
23,RRIRQRPPRLPRPRPRPPCRPRP,-0.0419
24,RRIRNRPPRLPRPRPRPQLQPRP,-0.0979
25,RRIRNRPPRLPRPRPRPTFMPRP,-0.401

row,Sequence,shrunken log2 fold change
1,RRIRMRPPRLPRPRPRPNQIPRP,0.283
2,RRIRVRPPRLPRPRPRPGHSPRP,-0.195
3,RRIRSRPPRLPRPRPRPHKTPRP,-0.258
4,RRIRTRPPRLPRPRPRPNLQPRP,-0.0672
5,RRIRVRPPRLPRPRPRPIESPRP,-0.0725
6,RRIRRRPPRLPRPRPRPKEWPRP,0.044
7,RRIRSRPPRLPRPRPRPGNDPRP,0.111
8,RRIRHRPPRLPRPRPRPTASPRP,-0.131
9,RRIRYRPPRLPRPRPRPVMMPRP,-0.891
10,RRIRVRPPRLPRPRPRPFMMPRP,0.097
11,RRIRKRPPRLPRPRPRPEASPRP,0.497
12,RRIRYRPPRLPRPRPRPWQLPRP,-0.647
13,RRIRNRPPRLPRPRPRPFMYPRP,-0.247
14,RRIRLRPPRLPRPRPRPGEAPRP,0.214
15,RRIRGRPPRLPRPRPRPVQLPRP,0.0748
16,RRIRWRPPRLPRPRPRPEWRPRP,0.439
17,RRIRVRPPRLPRPRPRPKIHPRP,-0.205
18,RRIRTRPPRLPRPRPRPVNLPRP,-0.0397
19,RRIRARPPRLPRPRPRPSPSPRP,0.52
20,RRIRERPPRLPRPRPRPKIWPRP,0.0407
21,RRIRCRPPRLPRPRPRPAMRPRP,0.509
22,RRIRGRPPRLPRPRPRPQFHPRP,-0.239
23,RRIRFRPPRLPRPRPRPICAPRP,0.0631
24,RRIRDRPPRLPRPRPRPVLWPRP,0.37
25,RRIRFRPPRLPRPRPRPEWWPRP,0.0105

row,Sequence,shrunken log2 fold change
1,RRIRVRPPRLPRPRPRPGYDPRP,-0.422
2,RRIRNRPPRLPRPRPRPCVIPRP,-0.318
3,RRIRNRPPRLPRPRPRPLCPPRP,-0.141
4,RRIRLRPPRLPRPRPRPNHFPRP,-0.349
5,RRIRGRPPRLPRPRPRPVGIPRP,0.414
6,RRIRWRPPRLPRPRPRPVRHPRP,0.245
7,RRIRWRPPRLPRPRPRPRMVPRP,0.155
8,RRIRRRPPRLPRPRPRPEEPPRP,0.24
9,RRIRPRPPRLPRPRPRPVWLPRP,0.577
10,RRIRLRPPRLPRPRPRPWFYPRP,-0.785
11,RRIRVRPPRLPRPRPRPMHCPRP,-0.00923
12,RRIRVRPPRLPRPRPRPPDVPRP,-0.286
13,RRIRTRPPRLPRPRPRPAKVPRP,-0.29
14,RRIRIRPPRLPRPRPRPDDMPRP,-0.0552
15,RRIRVRPPRLPRPRPRPEDYPRP,0.0316
16,RRIRSRPPRLPRPRPRPLVQPRP,-0.0825
17,RRIRRRPPRLPRPRPRPMKVPRP,-0.0467
18,RRIRQRPPRLPRPRPRPQYRPRP,0.0114
19,RRIRERPPRLPRPRPRPMMDPRP,-0.0298
20,RRIRTRPPRLPRPRPRPQSAPRP,-0.0745
21,RRIRIRPPRLPRPRPRPDKLPRP,-0.275
22,RRIRQRPPRLPRPRPRPAWRPRP,0.497
23,RRIRRRPPRLPRPRPRPNSRPRP,-0.0456
24,RRIRWRPPRLPRPRPRPMVAPRP,0.457
25,RRIRGRPPRLPRPRPRPMQHPRP,1.24
